From US20220298244A1 (BEIJING MABWORKS BIOTECH, published 2022) come the findings set out here.

Read-outs that look alike come from different tables or passages of the source.

Test [1] has as its target T1, monkey PD-L1 (ECD)-his (monkey, UniProt Q9NZQ7 19-238 (human entry)).
T1 construct: Bought protein; also called Cat #:90251-C08H, Sino Biological; not shown: His tag
Put plainly: SPR (BIAcore 8K), monkey PD-L1 (ECD)-his coupled to CM5 chip, antibody injected, 1:1 Langmuir model. The procedure: (§1) These antibodies were also tested in SPR assays for their binding affinities to human and monkey PD-L1 with BIAcore™ 8K instrument (GE Life Sciences). Briefly, 100-200 response units (RU) of human PD-L1 (ECD)-his protein (Cat #:10084-H08H, Sino Biological, CN) or monkey PD-L1 (ECD)-his protein (Cat #:90251-008H, Sino Biological, CN) were coupled to CM5 biosensor chips (Cat #:BR-1005-30, GE Life Sciences, US), and the un-reacted groups were blocked with 1M ethanolamine Serially diluted antibodies at concentrations ranging from 0.3 μM to 10 μM were injected into the SPR running buffer (HBS-EP buffer, pH7.4, Cat #:BR-1006-69, GE Life Sciences, US) at 30 μL/minute. The binding affinities were calculated with the RUs of blank controls subtracted. The association rate (kₐ) and dissociation rate (kd) were calculated using the one-to-one Langmuir binding model (BIA Evaluation Software, GE Life Sciences), and the equilibrium dissociation constant KD was calculated as the kd/kₐ ratio.

For test [2], the target named is T2, monkey PD-L1 expressed on HEK293A cells (monkey (cynomolgus), UniProt Q9NZQ7 19-290 (human entry)).
T2 construct: Full-length cDNA expressed stably; also called HEK293A/monkey PD-L1 cells; HEK293A/monkey PD-L1
Put plainly: FACS on HEK293A/monkey PD-L1 cells, serially diluted antibody (protocol of Example 4).

The target of test [3] is T3, human PD-L1 (ECD)-his (human, UniProt Q9NZQ7 19-238).
T3 construct: Bought protein; it is not tied to the bought construct by a sentence of its own; also called recombinant human PD-L1(ECD)-his; Cat #:10084-H08H, Sino Biological; not shown: His tag
Put plainly: SPR (BIAcore 8K), human PD-L1 (ECD)-his coupled to CM5 chip, antibody injected, 1:1 Langmuir model. The procedure:
as §1

In test [4] the target is T4, human PD-L1 expressed on HEK293A cells (human, UniProt Q9NZQ7 19-290).
T4 construct: Full-length cDNA expressed stably; also called HEK293A/human PD-L1 cells; HEK293A/human PD-L1
Put plainly: FACS blocking assay on HEK293A/human PD-L1 cells; blocked ligand PD1-hFc (protocol of Example 6). The procedure:
(§2) Briefly, 10⁵ HEK293A/human PD-L1 cells in 100 μl culture medium were seeded onto each well of 96-well plates, to which added 50 μl serially diluted anti-PD-L1 antibodies. After incubated at 4° C. for 1 hour, the plates were washed 3 times with PBST. […] After incubation at 4° C. for 1 hour, the plates were washed with PBST for 3 times, and added with PE coupled Goat Anti-human IgG (Cat #:PAI-86078, Thermofisher, US) diluted 500×. After incubation at 4° C. for 1 hour, the plates were washed with PBST for 3 times and then cell fluorescence was monitored using a FACS machine (BD).

In the next test the target is T5, mouse PD-L1(ECD)-his (mouse, UniProt Q9EP73 19-239).
T5 construct: Bought protein; also called mouse PD-L1-his; Cat #:50010-M08H, Sino Biological; not shown: His tag
Description: direct ELISA on coated mouse PD-L1(ECD)-his. The procedure: (§3) Species-cross-reactivities of the anti-PD-L1 mAbs to monkey or mouse PD-L1s were further assessed by direct ELISA. Briefly, 96-well ELISA plates were coated with 500 ng/ml monkey PD-L1 (ECD)-his (Cat #:90251-C08H, Sino Biological, CN) or mouse PD-L1(ECD)-his (Cat #:50010-M08H, Sino Biological, CN), 100 μl per well, then added and incubated with 100 μl serially diluted anti-PD-L1 antibodies (starting at 40 μg/ml). The plates were then added and incubated with Goat anti-human IgG conjugated with HRP (Cat #:31410, Thermal, US) for 1 hour at room temperature. Plates were developed with freshly prepared Ultra-TMB (Cat #:555214, BD, US) for 5 minutes at room temperature, and absorbance was read on a SpectraMax^R i3X reader (Molecular Devies, US) at 450 nm.

The target of test [5] is T1, monkey PD-L1 (ECD)-his. Description: ELISA on coated monkey PD-L1 (ECD)-his. The procedure: as §3
(In general: In an ELISA, binding on a coated surface is turned into a signal by an enzyme label.)

The target of test [6] is T2, monkey PD-L1 expressed on HEK293A cells. Description: FACS on HEK293A/monkey PD-L1 cells, serially diluted antibody (protocol of Example 4). The procedure: (§4) To determine whether the anti-PD-L1 antibodies bound to human, monkey or mouse PD-L1s expressed on HEK293A cells, a cell-based binding assay was performed by FACS using the HEK293A cells stably overexpressing human, monkey and mouse PD-L1s respectively as generated in Example 1. Briefly, 10⁵ HEK293A cells in 100 μl culture medium were seeded onto each well of the 96-well plates, to which added 50 μl serially diluted anti-PD-L1 antibodies. After incubated at 4° C. for 1 hour, plates were washed 3 times with PBST. Then, APC coupled Goat Anti-Mouse IgG (Cat #:405308, BioLegend, US) diluted 500× was added to the plates. After incubation at 4° C. for 1 hour, the plates were washed with PBS for 3 times and then cell fluorescence was monitored using a FACS machine (BD).
This is another data set of the same source.

Test [7] deals with T3, human PD-L1 (ECD)-his. Put plainly: ELISA on coated human PD-L1 (ECD)-his. The procedure: The chimeric anti-PD-L1 antibodies were further characterized for their abilities of binding to human PD-L1, monkey PD-L1 and mouse PD-L1. Briefly, ELISA plates were coated with 500 ng/ml human PD-L1 (ECD)-his (Cat #:10084-H08H, Sino Biological, CN), 100 μl per well, at 4° C. overnight. The wells were blocked with 200 μl blocking buffer (PBS containing 1% BSA, 1% goat serum and 0.05% Tween 20) for 2 hours at room temperature, added and incubated with 100 μl serially diluted anti-PD-L1 antibodies (starting at 40 μg/ml) for 1 hour at room temperature. The plates were washed for 3 times with PBST (PBS+0.05% Tween 20), added with Goat-anti-human IgG-HRP (Cat #:31410, Thermal, US) diluted 5000×, and incubated for 1 hour at room temperature. Plates were developed with freshly prepared Ultra-TMB (Cat #:555214, BD, US) for 5 minutes at room temperature. Absorbance was read on a SpectraMax^R i3X reader (Molecular Devies, US) at 450 nm.

Test [8] addresses T6, mouse PD-L1 expressed on HEK293A cells (mouse, UniProt Q9EP73 19-290).
T6 construct: Full-length cDNA expressed stably; also called HEK293A/mouse PD-L1 cells; HEK293A/mouse PD-L1
Description: FACS on HEK293A/mouse PD-L1 cells, serially diluted antibody (protocol of Example 4). The procedure:
as §4

Test [9] has as its target T4, human PD-L1 expressed on HEK293A cells. Put plainly: FACS on HEK293A/human PD-L1 cells, serially diluted antibody (protocol of Example 4). The procedure:
as §4

Test [10] has the same target. Description: FACS blocking assay: antibody titrated on HEK293A/human PD-L1 cells, then PD1-hFc (200 µg/ml) detected. The procedure: as §2
The target in test [11] is T6, mouse PD-L1 expressed on HEK293A cells. Description: FACS on HEK293A/mouse PD-L1 cells. The procedure:
as §4

The target of test [12] is T4, human PD-L1 expressed on HEK293A cells. Description: FACS on HEK293A/human PD-L1 cells. The procedure: as §4
For test [13], the target named is T2, monkey PD-L1 expressed on HEK293A cells. Put plainly: FACS on HEK293A/monkey PD-L1 cells. The procedure: as §4
Test [14] shares this target. Put plainly: FACS on HEK293A/monkey PD-L1 cells, serially diluted antibody (protocol of Example 4). The source holds these as a separate data set.

T6 sequence (Q9EP73 19-290 limits assumed): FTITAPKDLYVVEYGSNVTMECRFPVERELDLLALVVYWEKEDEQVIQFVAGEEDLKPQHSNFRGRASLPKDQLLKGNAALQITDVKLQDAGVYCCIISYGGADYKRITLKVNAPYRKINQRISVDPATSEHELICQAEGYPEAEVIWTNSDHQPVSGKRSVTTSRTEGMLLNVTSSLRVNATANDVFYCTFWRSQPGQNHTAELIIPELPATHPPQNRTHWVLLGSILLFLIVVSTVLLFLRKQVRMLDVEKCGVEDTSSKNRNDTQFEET
T1 sequence (Q9NZQ7 other isoform, or with tags, fused parts or gaps): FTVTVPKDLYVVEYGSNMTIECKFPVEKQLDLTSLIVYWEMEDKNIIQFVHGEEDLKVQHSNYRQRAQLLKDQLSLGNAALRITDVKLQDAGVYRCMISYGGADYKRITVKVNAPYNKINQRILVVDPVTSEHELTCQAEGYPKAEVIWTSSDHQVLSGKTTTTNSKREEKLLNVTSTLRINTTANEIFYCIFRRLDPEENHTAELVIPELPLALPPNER
T2 sequence (Q9NZQ7 other isoform, or with tags, fused parts or gaps limits assumed): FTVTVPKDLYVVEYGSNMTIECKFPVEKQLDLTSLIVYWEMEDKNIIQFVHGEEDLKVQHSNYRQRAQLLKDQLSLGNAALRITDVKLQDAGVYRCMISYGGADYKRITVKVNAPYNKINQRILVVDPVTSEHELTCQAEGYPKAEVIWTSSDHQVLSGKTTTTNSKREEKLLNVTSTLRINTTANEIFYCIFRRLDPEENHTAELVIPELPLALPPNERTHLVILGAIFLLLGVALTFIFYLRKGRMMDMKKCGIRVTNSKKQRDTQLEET
T3 sequence (Q9NZQ7 19-238): as the sequence (Q9NZQ7 other isoform, or with tags, fused parts or gaps) above, with T33A, S34A, N62S, Q68R, R82Q, L173F, A185T, I192T, L215H counted along it
T4 sequence (Q9NZQ7 19-290 limits assumed): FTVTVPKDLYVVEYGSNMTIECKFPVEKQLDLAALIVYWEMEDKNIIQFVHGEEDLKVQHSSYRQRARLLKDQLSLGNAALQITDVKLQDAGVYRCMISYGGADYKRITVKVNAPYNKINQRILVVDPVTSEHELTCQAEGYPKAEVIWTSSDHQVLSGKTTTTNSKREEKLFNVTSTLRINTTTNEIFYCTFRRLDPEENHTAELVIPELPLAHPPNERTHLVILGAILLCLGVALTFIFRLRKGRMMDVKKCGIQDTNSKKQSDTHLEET
T5 sequence (Q9EP73 19-239): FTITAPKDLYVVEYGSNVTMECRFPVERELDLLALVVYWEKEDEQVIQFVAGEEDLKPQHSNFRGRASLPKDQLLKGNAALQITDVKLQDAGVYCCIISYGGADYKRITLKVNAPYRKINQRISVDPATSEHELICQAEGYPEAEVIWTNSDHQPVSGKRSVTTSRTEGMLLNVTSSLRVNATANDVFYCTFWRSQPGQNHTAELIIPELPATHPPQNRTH

B1: humanized antibody 3C2-VH4VL4 (antibody, human IgG1, kappa, N297A, V domains shown)
VH: QVQLVQSGAEVKKPGASVKVSCKASGYSFTDYHVNWVKQRPGQGLEWIGWIFPGSGRTFYTDKFKGRVTLTVDTSTSTVYMELSSLTSEDTAVYFCATDYGTSGYGLVYWGQGTTVTVSS
VL: DIQMTQSPSSLSASVGDRVTISCKASDRINNWLAWYQQKPGNAPRLLISGATSLETGVPSRFSGSGSGTDYTFTISSLQPEDIAVYYCQQYWNIPFTFGQGTKVEIKR
notes: Human IgG1(N297A)/kappa
A word on the Kd: it is the concentration at which binding is half-saturated. As to B1, the Kd with monkey PD-L1 (ECD)-his [1] stood at 0.245 nM; with human PD-L1 (ECD)-his [3], 0.307 nM. Moreover, the binding result in test [2] is “binds”.

B2: humanized antibody 3C2-VH6VL5 (antibody, human IgG1, kappa, N297A, V domains shown)
VH: QVQLVQSGAEVKKPGASVKVSCKASGYTFTDYHVNWVRQAPGQGLEWIGWIFPGSGRTFYTDKFKGRVTMTVDTSTSTVYMELSSLRSEDTAVYYCATDYGTSGYGLVYWGQGTTVTVSS
VL: DIQMTQSPSSLSASVGDRVTITCKASDRINNWLAWYQQKPGKAPKLLISGATSLETGVPSRFSGSGSGTDFTLTISSLQPEDIATYYCQQYWNIPFTFGQGTKVEIKR
notes: Human IgG1(N297A)/kappa
Regarding B2, the Kd with monkey PD-L1 (ECD)-his [1] stood at 0.369 nM; with human PD-L1 (ECD)-his [3] it was 0.433 nM. For the same molecule, in [2], the binding result is “binds”.

B3: chimeric 56E5 antibody (antibody, human IgG1, kappa, N297A, V domains shown)
VH: EVQLQESGPGLAKPSQTLSLTCSVTGYSITSDYWNWIRKFPGNKLEYMGYISYTGSTYYNPSLKSRISITRDTSKNQYYLQLNSVTTEDTATYYCARYRDWDVRAMDYWGQGTSVTVSS
VL: DIVMTQSPSSLTVTAGEKVTMNCKSSQSLLISGNQKNFLTWYQQKPGQPPKLLIYWASTRESGVPDRFTGSGSGTDFTLTISSVQAEDLAVYYCQNDFGFPFTFGSGTKLEIKR
By EC50 is commonly meant the concentration giving half of the maximal effect. One may read the EC50 (read off the curve) as the concentration giving half of the maximal effect. B3: in [4], the “IC50 (read off the curve)” value was around 0.03 µg/mL. In addition, the binding result with mouse PD-L1(ECD)-his is listed as “no binding (tested: starting at 40 µg/ml)”; in test [8], “no binding (tested: LOG Con. about 4.6 (about 40000 ng/ml))”. Moreover, the figures for the EC50 in the test with monkey PD-L1 (ECD)-his [5] and in the test with human PD-L1 (ECD)-his [7] were 2.05 nM and 0.348 nM, respectively. The half-maximal effective concentration (EC50 (read off the curve)) in test [6] is around 0.04 µg/mL; in test [9], around 0.05 µg/mL.

B4: mouse anti-PD-L1 monoclonal antibody 56E5 (antibody, mouse IgG1, V domains shown)
VH: EVQLQESGPGLAKPSQTLSLTCSVTGYSITSDYWNWIRKFPGNKLEYMGYISYTGSTYYNPSLKSRISITRDTSKNQYYLQLNSVTTEDTATYYCARYRDWDVRAMDYWGQGTSVTVSS
VL: DIVMTQSPSSLTVTAGEKVTMNCKSSQSLLISGNQKNFLTWYQQKPGQPPKLLIYWASTRESGVPDRFTGSGSGTDFTLTISSVQAEDLAVYYCQNDFGFPFTFGSGTKLEIK
notes: Purified from hybridoma; also called Mouse 56E5
As for B4, the EC50 in test [10] came out at 0.01 nM; in test [12], 0.572 nM; in [13], 0.499 nM. For the same molecule, in test [11], the binding result was “no binding”.

B5: humanized antibody 56E5-VH5VL4 (antibody, human IgG1, kappa, N297A, V domains shown)
VH: QVQLQESGPGLVKPSQTLSLTCTVSGGSITSDYWNWIRQHPGNKLEYMGYISYTGSTYYNPSLKSRISITRDTSKNQFSLKLSSVTTADTAVYYCARYRDWDVRAMDYWGQGTTVTVSS
VL: DIVMTQSPDSLAVSLGEKVTMNCKSSQSLLISGNQKNFLTWYQQKPGQPPKLLIYWASTRESGVPDRFSGSGSGTDFTLTISSLQAEDLAVYYCQNDFGFPFTFGQGTKVEIKR
notes: Human IgG1(N297A)/kappa
As to B5, the results for the Kd with monkey PD-L1 (ECD)-his [1] and with human PD-L1 (ECD)-his [3] were 0.00807 nM and 0.518 nM, respectively. Moreover, the binding result in test [14] is on record as “binds”.

B6: mouse anti-PD-L1 monoclonal antibody 3C2 (antibody, mouse IgG1, V domains shown)
VH: QVQLNQSGPELMKAGTSVKISCKASGYSFTDYHVNWVKQRPGQGLEWIGWIFPGSGRTFYTDKFKGKATLTVDLSFTTAYIMLNSLTSEDSAVYFCATDYGTSGYGLVYWGQGTSVTVSS
VL: DIQMTQSSSYLSVSLGGRVTISCKASDRINNWLAWYQQKPGNAPRLLISGATSLETGVPSRFSGSGSGKDYTLSITSLQTEDVAVYYCQQYWNIPFTFGSGTKLEIK
notes: Purified from hybridoma; also called Mouse 3C2
Take B6: the EC50 was found to be 0.0147 nM in test [10], 1.75 nM in test [12] and 1.25 nM in test [13]. Besides, the binding result in test [11] was “no binding”.
